Patent publication US20100009907A1, “Glucagon-Like Peptides and Uses Thereof” (AMYLIN PHARMACEUTICALS, INC., priority 2006, published 2010)
Where no end group is shown, it is not given here.

Key:
[1] = molecular target: endogenous GLP-1, calcitonin, and GIP receptors of RINm5f cells; test: cell-based or functional assay
[2] = molecular target: T1, GLP-1 receptor (endogenous, RINm5F cell membranes; rat thyroid carcinoma 6-23 clone 6 cells) (rat, UniProt P32301 22-463); test: displacement of [125I]GLP-1 from RINm5F cell membranes (GLP RBA)
T1 construct: whole, on cells
T1 sequence (looked up): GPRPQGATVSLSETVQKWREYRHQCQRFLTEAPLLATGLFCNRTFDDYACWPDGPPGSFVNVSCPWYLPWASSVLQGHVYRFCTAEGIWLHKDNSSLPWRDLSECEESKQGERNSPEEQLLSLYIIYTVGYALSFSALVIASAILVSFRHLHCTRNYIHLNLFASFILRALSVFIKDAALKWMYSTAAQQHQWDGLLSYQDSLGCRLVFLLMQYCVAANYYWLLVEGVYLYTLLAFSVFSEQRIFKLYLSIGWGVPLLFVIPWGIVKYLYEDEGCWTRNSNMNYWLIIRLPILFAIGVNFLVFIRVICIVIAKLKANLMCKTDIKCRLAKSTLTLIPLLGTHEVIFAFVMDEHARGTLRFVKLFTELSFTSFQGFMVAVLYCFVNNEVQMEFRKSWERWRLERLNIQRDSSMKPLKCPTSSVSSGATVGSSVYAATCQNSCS
Description: GLP-1 receptor binding activity and affinity can be measured using a binding displacement assay in which the receptor source is RINm5F cell membranes, and the ligand is [¹²⁵I]GLP-1. Homogenized RINm5F cell membranes are incubated in 20 mM HEPES buffer with 40,000 cpm [¹²⁵I]GLP-1 tracer, and varying concentrations of test compound for 60 minutes at 23° C. with constant mixing. Reaction mixtures are filtered through glass filter pads presoaked with 0.3% PEI solution and rinsed with ice-cold phosphate buffered saline. Bound counts are determined using a scintillation counter. Binding affinities are calculated using GraphPad Prism software (GraphPad Software, Inc., San Diego, Calif.).

[3] = molecular target: T1, GLP-1 receptor (endogenous, RINm5F cell …); test: cell-based or functional assay

Binder | GLP/GIP/CT cAMP(RIN) EC50 [1] [nM] | IC50 [2] [nM] | GLP-1 cAMP (6-23) EC50 [3] [nM]
HXEGTYTNDVTEYLEEKAAKEFIEWLIKGKPKKIRYS (here or on the partner: dAla at position 2 (a = dAla)) [SEQ ID NO 23] | 0.22 | – | –
HXEGTYTNDVTEYLEEKAAKEFIEWLIKGKPKKIRYS (Abu (2-Aminobutyric acid) at position 2, also called nmGLP-1 analog) [SEQ ID NO 28] | – | 0.067 | –
HXEGTYTNDVTEYLEEKAAKEFIEWLIKGKPKKIRYS (Aib (2-Aminoisobutyric acid) at position 2, also called nmGLP-1 analog) | – | 0.1 | –
HXEGTYTNDVTEYLEEKAAKEFIEWLIKGKPKKIRYS (here or on the partner: Aib (2-Aminoisobutyric acid) at position 2) | 0.544 | – | –
HAEGTYTNDVTQFLEEKAAKEFIDWLIKGKPKKQRLS [SEQ ID NO 50] | 0.14 | – | –
HXEGTYTNDVTQFLEEKAAKEFIDWLIKGKPKKQRLS (here or on the partner: dAla at position 2 (a = dAla)) [SEQ ID NO 54] | 0.435 | – | –
HXEGTYTNDVTQFLEEKAAKEFIDWLIKGKPKKQRLS (here or on the partner: Abu (2-Aminobutyric acid) at position 2) | 0.146 | – | –
HXEGTYTNDVTQFLEEKAAKEFIDWLIKGKPKKQRLS (Abu (2-Aminobutyric acid) at position 2) | – | – | 0.12
HGEGTYTNDVTQFLEEKAAKEFIDWLIKGKPKKQRLS (also called nmGLP-1 analog) [SEQ ID NO 55] | 0.576 | 0.05 | –
HAEGTFTSDVTQQLDEKAAKEFIDWLINGGPSSGAPPPS [SEQ ID NO 9] | 0.28 | – | –
YADAPYISDVYSYLQDQVAKKWLKSGQD (also called nmGLP-1 peptide; naturally occurring nmGLP-1) [SEQ ID NO 51] | 971 | 111 | –
HAEGTYTNDVTEYLEEKAAKEFIEWLIKGKPK [SEQ ID NO 40] | – | – | 0.12
HAEGTFTSDVTQQLEEKAAKEFIEWLIKGKPKKIRYS (also called nmGLP-1 analog) [SEQ ID NO 22] | 0.1 | 0.067 | –
HAEGTYTNDVTEYLEEKAAKEFIEWLIKGKPKKIRYS (also called nmGLP-1 peptide; naturally occurring nmGLP-1) [SEQ ID NO 2] | 0.36 | – | 0.82
HGEGTYTNDVTEYLEEKAAKEFIEWLIKGKPKKIRYS (also called nmGLP-1 analog) [SEQ ID NO 26] | 0.967 | – | 0.16
HAEGTFTSDVTQQLDEKAAKEFIDWLINPGSEGIKSI (also called nmGLP-1 analog) [SEQ ID NO 14] | 18 | – | 2.2
EGTYTNDVTEYLEEKAAKEFIEWLIKGKPKKIRYS (also called nmGLP-1 analog) [SEQ ID NO 37] | – | – | > 1000
HXEGTYTNDVTEYLEEKAAKEFIEWLI (dAla at position 2 (a = dAla)) [SEQ ID NO 43] | – | – | 0.14
HAEGTYTNDVTEYLEEKAAKEFIEWLINGGPSKEIIS (also called nmGLP-1 analog) [SEQ ID NO 21] | 1 | 2.1 | –
HADGTFTNDMTSYLDAKAARDFVSWLARSDKS (also called nmGLP-1 peptide; naturally occurring nmGLP-1) [SEQ ID NO 52] | 382 | 0.9 | –
HAEGTYTNDVTEYLEEKAAKEFIEWLIPKKIRYS (also called nmGLP-1 analog) [SEQ ID NO 32] | – | – | 8.3
HAEGTFTSDVTQQLDEKAAKEFIDWLINGGPSKEIIS-OH (also called nmGLP-1 peptide; naturally occurring nmGLP-1) [SEQ ID NO 1] | 1.9 | – | 7.7
HAEGTFTSDVTQQLDEKAAKEFIDWLINGGASKEIIS (also called nmGLP-1 analog) [SEQ ID NO 12] | 0.29 | 8.8 | –
HAEGTFTSDVTQQLDEKAAKEFIDALINGGPSKEIIS (also called nmGLP-1 analog) [SEQ ID NO 13] | 196 | – | –

Binder | GLP/GIP/CT cAMP(RIN) EC50 [1] [nM] | IC50 [2] [nM] | GLP-1 cAMP (6-23) EC50 [3] [nM]
HXEGTFTSDVTQQLDEKAAKEFIDWLIN (here or on the partner: dAla at position 2 (a = dAla)) [SEQ ID NO 8] | 19 | – | –
HAEGTFTNDMTNYLEEKAAKEFVGWLIKGRS (also called nmGLP-1 analog) [SEQ ID NO 6] | 1.23 | – | –
HAEGTYTNDVTEYEEKAAKEFIEWLIKGKPKKIRYS (also called nmGLP-1 analog) [SEQ ID NO 38] | – | 42 | 104
HAEGTYTNDVTELEEKAAKEFIEWLIKGKPKKIRYS (also called nmGLP-1 analog) [SEQ ID NO 33] | – | 81 | 145
HAEGTYTNDVTEYLEKAAKEFIEWLIKGKPKKIRYS (also called nmGLP-1 analog) [SEQ ID NO 29] | – | 91 | 930
HAEGTYTNDVTEYLEEKAAKFIEWLIKGKPKKIRYS (also called nmGLP-1 analog) [SEQ ID NO 31] | – | – | 44
HAEGTYTNDTEYLEEKAAKEFIEWLIKGKPKKIRYS (also called nmGLP-1 analog) [SEQ ID NO 39] | – | 61 | > 1000
HAEGTYTNDVTYLEEKAAKEFIEWLIKGKPKKIRYS (also called nmGLP-1 analog) [SEQ ID NO 41] | – | 9 | 220
HAEGTYTNDVTEYLEEAAKEFIEWLIKGKPKKIRYS (also called nmGLP-1 analog) [SEQ ID NO 30] | – | 537 | > 1000
HAEGTFTSDVTQQLDEKAAKEFIDWLIN (also called nmGLP-1 analog) [SEQ ID NO 7] | 4.7 | – | –
HXEGTYTNDVTEYLEEKAAKEFIEWL (dAla at position 2 (a = dAla)) [SEQ ID NO 45] | – | – | 34
HADGTYTSDVSSYLQDQAAKDFITWLKSGQPKPDAVETRSVDTL (also called nmGLP-1 peptide; naturally occurring nmGLP-1) [SEQ ID NO 49] | 415 | 74 | –
HADGTYTSDVSSYLQDQAAKDFITWLKSGQPKPDAVET (also called nmGLP-1 peptide; naturally occurring nmGLP-1) [SEQ ID NO 48] | 14 | – | 2.34
HAEGTYTNDVTEYLEEKAAKEFIEWLIGKPKKIRYS (also called nmGLP-1 analog) [SEQ ID NO 35] | – | – | 0.172
HAEGTYTNDVTEYLEEKAAKEFIEWLIKGPKKIRYS (also called nmGLP-1 analog) [SEQ ID NO 36] | – | – | 0.086
HAEGTYTNDVTEYLEEKAAKEFIEWL [SEQ ID NO 44] | – | – | 23
HAEGTYTNDVTEYLEEKAAKEFIEWLI [SEQ ID NO 42] | – | – | 0.22
HAEGTYTNDVTEYLEEKAAKEFIEW [SEQ ID NO 46] | – | – | 1940
HAEGTYTNDVTEYLEEKAAKEFIEWLIN (also called nmGLP-1 analog) [SEQ ID NO 24] | 0.85 | 1.3 | –
HAEGTYTNDVTEYLEEKAAKEFIEWLIK (also called nmGLP-1 analog) [SEQ ID NO 25] | 0.53 | 0.54 | –
HAEGTFTSDVTQQLDEKAAKEFIDWLINGGPSKEIIS (also called nmGLP-1 analog) [SEQ ID NO 11] | 0.59 | 2.3 | –
HXEGTFTSDVTQQLDEKAAKEFIDWLINGGPSKEIIS (dAla at position 2 (a = dAla), also called nmGLP-1 analog) | – | 1.9 | –
HXEGTFTSDVTQQLDEKAAKEFIDWLINGGPSKEIIS (here or on the partner: dAla at position 2 (a = dAla)) | 0.048 | – | –
